From patent US20260242478A1 (published 2026)

B1: Phage-1067 (peptide)
peptide: YCDGHSPEYMQKCL
notes: Clonal phage supernatant; not shown: fused to the pIII filament protein of the bacteriophage
B2: Phage-1071 (peptide)
peptide: YCEGHHPWYVQKCL
notes: as for B1
B3: Phage-1072 (peptide)
peptide: YCDGHNWEYMEKCL
notes: as for B1
B4: Phage-1074 (peptide)
peptide: YCDGLFQLYMMKCL
notes: as for B1
B5: Phage-1064 (peptide)
peptide: YCEGHSAEYIAKCL
notes: as for B1
B6: Phage-1068 (peptide)
peptide: YCNGHLPEYMSKCI
notes: as for B1
B7: Phage-1069 (peptide)
peptide: YCSGHLPEYMDKCL
notes: as for B1
B8: Phage-1073 (peptide)
peptide: YCDGHAEQYMSKCL
notes: as for B1
B9: Phage-1065 (peptide)
peptide: YCDGHSPEHMGKCL
notes: as for B1
B10: Phage-1066 (peptide)
peptide: YCDGHDARYMEKCL
notes: as for B1
B11: Phage-1070 (peptide)
peptide: YCDGHSLEYMLKCL
notes: as for B1

target: T1, Anti-CD28 Fab (SEQ ID NOs: 696, 697); experiment: phage ELISA, clonal phage on biotinylated anti-CD28 Fab captured on neutravidin, anti-M13-HRP detection
T1 construct: Biotinylated and captured on neutravidin coated plates in the phage ELISA
T1 sequence (VH, as listed by the source, chain 1 of 2): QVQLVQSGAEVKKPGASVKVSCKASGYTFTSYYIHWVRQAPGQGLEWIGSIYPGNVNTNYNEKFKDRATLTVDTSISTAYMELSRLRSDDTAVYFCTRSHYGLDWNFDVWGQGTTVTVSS
T1 sequence (VL, as listed by the source, chain 2 of 2): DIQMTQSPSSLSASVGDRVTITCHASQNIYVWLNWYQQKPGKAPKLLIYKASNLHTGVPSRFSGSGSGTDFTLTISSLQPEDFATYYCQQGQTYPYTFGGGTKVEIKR
Experimental: (§1) After panning, phage infected bacteria were plated out and colonies picked into 96 well blocks. Clonal phage was then amplified and separated from bacterial cells via centrifugation.
(§2) Clonal phage were harvested as crude supematants and screened via standard ELISAs. […] Prior to the addition of clonal phage, wells were incubated with blocking buffer and CD28 antigen or blocking buffer alone. Without washing or aspirating, clonal phage supematants were then added to the wells and incubated for a short time. Wells were then washed followed by detection of bound phage using a horse radish conjugated anti-M13 antibody. Clonal phage of interest were then sent for sequence analysis.

Binder	Anti-CD28 Fab signal (phage binding ELISA)
YCEGHSTEYIQKCL [Phage-1144]	1.23
YCDGHSMMYMQKCL [Phage-1145]	1.23
YCEGHIGIYMSKCL [Phage-1143]	1.23

target: T2, Anti-CD28 Fab (SEQ ID NOs: 696, 697); experiment: phage ELISA on captured anti-CD28 Fab, wells pre-incubated with CD28 antigen as competitor;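 further: crude clonal phage supernatants added without washing, bound phage read out by HRP-coupled anti-M13 antibody, reference wells given blocking buffer only instead of CD28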
T2 construct: Biotinylated and captured on neutravidin coated plates in the phage ELISA
T2 sequence (VH, as listed by the source, chain 1 of 2): as the sequence (VH, as listed by the source, chain 1 of 2) above
T2 sequence (VL, as listed by the source, chain 2 of 2): as the sequence (VL, as listed by the source, chain 2 of 2) above

Binder	Anti-CD28 Fab signal in the presence of CD28 (phage binding ELISA)
YCEGHTQEYMQKCL [Phage-1138]	0.07
YCEGHLPMYMTKCL [Phage-1136]	0.06
YCAGLFEEYMSKCL [Phage-1135]	0.06
YCEGHHRIYMQKCL [Phage-1131]	0.07
YCEGHLAEYMNKCL [Phage-1140]	0.07
YCDGHSSVYMLKCL [Phage-1130]	0.06
YCDGHLEQYMLKCL [Phage-1142]	0.09
YCEGHSEEYMAKCL [Phage-1132]	0.07
YCDGHSEQYMAKCL [Phage-1137]	0.06
YCDGHVEEYMTKCL [Phage-1141]	0.07
YCEGHLQEHMAKCL [Phage-1134]	0.05
YCAGHTAEYMAKCL [Phage-1139]	0.08
YCEGHMSIYMQKCL [Phage-1133]	0.07

target: T3, Anti-CD28 Fab (SEQ ID NOs: 696, 697); experiment: phage ELISA; biotinylated anti-CD28 Fab on neutravidin plate, clonal phage supernatant, anti-M13 HRP detection;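 further: crude supernatants of single phage clones picked after panning were screened for binding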
T3 construct: In the phage ELISA the Fab was biotinylated and captured on neutravidin coated plates
T3 sequence (VH, as listed by the source, chain 1 of 2): as the sequence (VH, as listed by the source, chain 1 of 2) above
T3 sequence (VL, as listed by the source, chain 2 of 2): as the sequence (VL, as listed by the source, chain 2 of 2) above
Experimental: as §1, §2

Binder	Anti-CD28 Fab signal (phage binding ELISA)
B1	1.4
B2	1.39
B3	1.38
B4	1.38
B5	1.41
B6	1.4
B7	1.39
B8	1.38
B9	1.4
B10	1.4
B11	1.39

target: Anti-CD28 Fab (SEQ ID NOs: 696, 697); experiment: as above
Target sequence in this assay (VH, as listed by the source, chain 1 of 2): as the sequence (VH, as listed by the source, chain 1 of 2) above
Target sequence in this assay (VL, as listed by the source, chain 2 of 2): as the sequence (VL, as listed by the source, chain 2 of 2) above
Experimental: as §1, §2

Binder	Anti-CD28 Fab signal (phage binding ELISA)
YCEGHSPEYMHKCL (Tested as clonal phage supernatant) [Phage-1097]	1.34
YCAGHASEYMAKCL (Tested as clonal phage supernatant) [Phage-1100]	1.33
YCDGHSEEFMWKCL (Tested as clonal phage supernatant) [Phage-1090]	1.35
YCDGHAPLYIQKCL (Tested as clonal phage supernatant) [Phage-1095]	1.34
YCDGHAPQYMRKCL (Tested as clonal phage supernatant) [Phage-1101]	1.33
YCEGHMEKYMEKCL (Tested as clonal phage supernatant) [Phage-1091]	1.35
YCDGHLLQYMHKCL (Tested as clonal phage supernatant) [Phage-1094]	1.35
YCDGHLPEYMQKCL (Tested as clonal phage supernatant) [Phage-1093]	1.35
YCDGHLPRYMAKCL (Tested as clonal phage supernatant) [Phage-1092]	1.35
YCAGHVDQYLWKCL (Tested as clonal phage supernatant) [Phage-1099]	1.34
YCDGHSEAYIEKCL (Tested as clonal phage supernatant) [Phage-1098]	1.34
YCDGHMVQYMAKCL (Tested as clonal phage supernatant) [Phage-1089]	1.36
YCDGHSKEYMAKCL (Tested as clonal phage supernatant) [Phage-1096]	1.34

target: Anti-CD28 Fab (SEQ ID NOs: 696, 697); experiment: phage ELISA; Fab-coated wells pre-incubated with CD28 antigen as competitor, anti-M13 HRP detection;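 further: crude clonal phage supernatants screened by ELISA, comparing wells pre-treated with CD28 antigen in blocker against wells given blocker only, bound phage read via HRP-linked anti-M13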
Target sequence in this assay (VH, as listed by the source, chain 1 of 2): as the sequence (VH, as listed by the source, chain 1 of 2) above
Target sequence in this assay (VL, as listed by the source, chain 2 of 2): as the sequence (VL, as listed by the source, chain 2 of 2) above
Experimental: as §1, §2

Binder	Anti-CD28 Fab signal in the presence of CD28 (phage binding ELISA)
YCEGHSPEYMHKCL (Tested as clonal phage supernatant) [Phage-1097]	0.09
YCAGHASEYMAKCL (Tested as clonal phage supernatant) [Phage-1100]	0.08
YCDGHSEEFMWKCL (Tested as clonal phage supernatant) [Phage-1090]	0.06
YCDGHAPLYIQKCL (Tested as clonal phage supernatant) [Phage-1095]	0.06
YCDGHAPQYMRKCL (Tested as clonal phage supernatant) [Phage-1101]	0.08
YCEGHMEKYMEKCL (Tested as clonal phage supernatant) [Phage-1091]	0.11
YCDGHLLQYMHKCL (Tested as clonal phage supernatant) [Phage-1094]	0.07
YCDGHLPEYMQKCL (Tested as clonal phage supernatant) [Phage-1093]	0.08
YCDGHLPRYMAKCL (Tested as clonal phage supernatant) [Phage-1092]	0.1
YCAGHVDQYLWKCL (Tested as clonal phage supernatant) [Phage-1099]	0.06
YCDGHSEAYIEKCL (Tested as clonal phage supernatant) [Phage-1098]	0.06
YCDGHMVQYMAKCL (Tested as clonal phage supernatant) [Phage-1089]	0.07
YCDGHSKEYMAKCL (Tested as clonal phage supernatant) [Phage-1096]	0.06

target: T2, Anti-CD28 Fab (SEQ ID NOs: 696, 697); experiment: phage ELISA, clonal phage on biotinylated anti-CD28 Fab captured on neutravidin plates;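 further: crude clonal phage supernatants added to wells pretreated with CD28 antigen or with blocking buffer only, bound phage detected by HRP-linked anti-M13 antibody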
Experimental: as §1, §2

Binder	Anti-CD28 Fab signal (phage binding ELISA)
YCEGHTQEYMQKCL [Phage-1138]	1.24
YCEGHLPMYMTKCL [Phage-1136]	1.25
YCAGLFEEYMSKCL [Phage-1135]	1.25
YCEGHHRIYMQKCL [Phage-1131]	1.26
YCEGHLAEYMNKCL [Phage-1140]	1.24
YCDGHSSVYMLKCL [Phage-1130]	1.26
YCDGHLEQYMLKCL [Phage-1142]	1.24
YCEGHSEEYMAKCL [Phage-1132]	1.26
YCDGHSEQYMAKCL [Phage-1137]	1.24
YCDGHVEEYMTKCL [Phage-1141]	1.24
YCEGHLQEHMAKCL [Phage-1134]	1.25
YCAGHTAEYMAKCL [Phage-1139]	1.24
YCEGHMSIYMQKCL [Phage-1133]	1.25

target: T1, Anti-CD28 Fab (SEQ ID NOs: 696, 697); experiment: phage ELISA on captured anti-CD28 Fab, wells first incubated with CD28 antigen (competitor)
Experimental: as §1, §2

Binder	Anti-CD28 Fab signal in the presence of CD28 (phage binding ELISA)
YCEGHSTEYIQKCL [Phage-1144]	0.09
YCDGHSMMYMQKCL [Phage-1145]	0.06
YCEGHIGIYMSKCL [Phage-1143]	0.07

target: T3, Anti-CD28 Fab (SEQ ID NOs: 696, 697); experiment: phage ELISA; captured anti-CD28 Fab pre-incubated with CD28 antigen as competitor, anti-M13 HRP detection;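 further: crude clonal phage supernatants screened by ELISA, with wells pre-incubated with CD28 antigen in blocking buffer, compared against wells given blocking buffer alone as control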
Experimental: as §1, §2

Binder	Anti-CD28 Fab signal in the presence of CD28 (phage binding ELISA)
B1	0.53
B2	0.07
B3	0.05
B4	0.07
B5	0.09
B6	0.07
B7	0.07
B8	0.07
B9	0.09
B10	0.06
B11	0.07
